The results in this text go back to US20260022343A1 (AFFYXELL THERAPEUTICS, published 2026).

Several values for one entry are separate records, joined by “and”; a condition that tells them apart may be missing. Identical values can stand only once.

As usually defined, the EC50 is the concentration giving half of the maximal effect.

One assay concerns the target T1, human TNFR2 (human, UniProt P20333 23-257, limits assumed).
T1 sequence (looked up): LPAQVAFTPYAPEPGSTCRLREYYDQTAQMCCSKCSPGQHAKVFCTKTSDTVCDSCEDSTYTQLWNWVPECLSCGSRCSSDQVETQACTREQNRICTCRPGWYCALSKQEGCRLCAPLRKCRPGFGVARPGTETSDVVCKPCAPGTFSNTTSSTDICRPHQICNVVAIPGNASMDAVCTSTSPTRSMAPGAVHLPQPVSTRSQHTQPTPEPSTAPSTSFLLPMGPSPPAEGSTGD
As to the kind of experiment: selection of TNFR2-binding stefin A variants; method not described.

The target in assay [1] is T2, recombinant human CD40L (R&D Systems, 6420-CL-025/CF) (human, UniProt P29965 108-261, limits assumed).
T2 construct: Bought protein coated on the ELISA plate
T2 sequence (looked up): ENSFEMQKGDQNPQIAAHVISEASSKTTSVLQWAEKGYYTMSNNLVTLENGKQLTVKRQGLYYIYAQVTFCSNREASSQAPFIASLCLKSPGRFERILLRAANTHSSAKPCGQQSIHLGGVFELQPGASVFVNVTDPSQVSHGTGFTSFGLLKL
As to the kind of experiment: binding ELISA (bELISA): plate coated with recombinant human CD40L, 1/3 serial dilutions of concentrated culture fluid, TMB read-out; first-named of the two gene-introduced cell lines (promoter not stated). Here is the method:
(§1) Each cell line was inoculated into a T175 flask at a cell density of 4.0×10³ cells/cm² using a culture medium. After culture at 37° C. and 5% CO₂ for 18 to 24 hours, the culture medium was thoroughly replaced with a fresh culture medium every 2 days, followed by culture. After culture for 3 days, the cells were harvested, and 7.0×10⁶ cells were inoculated into a T175 flask, followed by culture at 37° C. and 5% CO₂ for 18 to 24 hours. The culture medium was thoroughly removed, and the remaining medium was completely removed through washing with 10 mL of MEM alpha. 30 mL of an MEM alpha medium was added to a T175 flask, followed by culture for 48 hours. After 48 hours, all of the cell culture fluid was harvested and then centrifuged to remove residual cells and impurities. The cell culture fluid was transferred to a Vivaspin 20 and centrifuged, the culture fluid was concentrated, and the stefin A protein variant was quantified through sandwich ELISA (LSBio, LS-F4620). […] The unbound stefin A protein variant was removed through washing, after which the extent of binding between the stefin A protein variant and CD40L was detected based on a difference in absorbance resulting from reaction with a TMB substrate.
For orientation: ELISA stands for enzyme-linked immunosorbent assay.

Assay [2] has as its target T2, recombinant human CD40L (R&D Systems, …). As to the kind of experiment: binding ELISA (bELISA): plate coated with recombinant human CD40L, 1/3 serial dilutions of concentrated culture fluid, TMB read-out; second-named of the two gene-introduced cell lines (promoter not stated). Here is the method: as §1
Assay [3] deals with T3, human Mega CD40L recombinant protein (Enzo Lifesciences) (human, UniProt P29965 116-261).
T3 sequence (looked up): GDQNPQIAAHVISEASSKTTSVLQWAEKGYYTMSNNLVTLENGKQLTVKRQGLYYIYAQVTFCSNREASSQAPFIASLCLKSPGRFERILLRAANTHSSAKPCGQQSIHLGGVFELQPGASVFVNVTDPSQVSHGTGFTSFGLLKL
Nature of the assay: cell-based or functional assay.

B1: TNFR2-binding stefin A variant CLONE 012 (designed binder)
chain: MIPGGLSEAKPATPEIQEIVDKVKPQLEEKTGETYGKLEAVQYKTQVVYWGVQGALDGTNYYIKVRAGDNKYMHLKVFKSLNWNHEFDLVEDLVLTGYQVDKNKDDELTGFAAAEQKLISEEDLAAHHHHHH
notes: also called clone 12
For B1, the binding result in the assay with human TNFR2 is on record as “binds”.

B2: TNFR2-binding stefin A variant CLONE 026 (designed binder)
chain: MIPRGLSEAKPATPEIQEIVDKVKPQLEEKTGETYGKLEAVQYKTQVLALEIPSAIIYSTNYYIKVRAGDNKYMHLKVFNGPYFWGDQEHWADRVLTGYQVDKNKDDELTGFAAAEQKLISEEDLAAHHHHHH
notes: also called clone 26
With B2, the binding result in the assay with human TNFR2 is reported as “binds”.

B3: anti-CD40L stefin A protein variant XT75 (SEQ ID NO: 105), secreted by gene-introduced MSC (eMSC) (designed binder)
chain: IPGGLSEAKPATPEIQEIVDKVKPQLEEKTGETYGKLEAVQYKTQVVHYYVHYNDQGTNYYIKVRAGDNKYMHLKVFKSLWGENLFAKWEDLVLTGYQVDKNKDDELTGFAEAAAKEAAAKEAAAKEAAAKEAAAKEAAAKMIPGGLSEAKPATPEIQEIVDKVKPQLEEKTGETYGKLEAVQYKTQVVHYYVHYNDQGTNYYIKVRAGDNKYMHLKVFKSLWGENLFAKWEDLVLTGYQVDKNKDDELTGFAEAAAKEAAAKEAAAKEAAAKEAAAKEAAAKMIPGGLSEAKPATPEIQEIVDKVKPQLEEKTGETYGKLEAVQYKTQVVHYYVHYNDQGTNYYIKVRAGDNKYMHLKVFKSLWGENLFAKWEDLVLTGYQVDKNKDDELTGFAEAAAKEAAAKEAAAKEAAAKEAAAKEAAAKMIPRGLSEAKPATPEIQEIVDKVKPQLEEKTGETYGKLEAVQYKTQVLANFFQRRWPGSTNYYIKVRAGDNKYMHLKVFNGPWKFRNTDRGADRVLTGYQVDKNKDDELTGF
notes: By their DNA these vectors appear to encode a further C-terminal Myc/His tag and a T2A remnant; also called AFX01-230 XT75(C); eMSC (XT75, w/EF1A)
With B3, the EC50 was found to be 0.0039 nM in assay [1] and 0.0053 nM in assay [2]. The “IC50 for hMega CD40L, HEK-Blue CD40L reporter cell assay (absorbance of HEK-Blue solution)” value in assay [3] is 0.303 nM and 0.4 nM.

B4: TNFR2-binding stefin A variant CLONE 009 (designed binder)
chain: MIPGGLSEAKPATPEIQEIVDKVKPQLEEKTGETYGKLEAVQYKTQVVRLFHIWRWWGTNYYIKVRAGDNKYMHLKVFKSLIHIYTDSIQEDLVLTGYQVDKNKDDELTGFAAAEQKLISEEDLAAHHHHHH
notes: also called clone 9
On to B4, for which the binding result with human TNFR2 was “binds”.

B5: TNFR2-binding stefin A variant CLONE 044 (designed binder)
chain: MIPGGLSEAKPATPEIQEIVDKVKPQLEEKTGETYGKLEAVQYKTQVVLFPEAVYWVGTNYYIKVRAGDNKYMHLKVFKSLIWNDNAAQHEDLVLTGYQVDKNKDDELTGFAAAEQKLISEEDLAAHHHHHH
notes: also called clone 44
As to B5, in the assay with human TNFR2, the binding result is given as “binds”.

B6: TNFR2-binding stefin A variant CLONE 100 (designed binder)
chain: MIPRGLSEAKPATPEIQEIVDKVKPQLEEKTGETYGKLEAVQYKTQVLAQSWDKHYQLRESTNYYIKVRAGDNKYMHLKVFNGPEVPHHAHGVADRVLTGYQVDKNKDDELTGFAAAEQKLISEEDLAAHHHHHH
As to B6, the binding result with human TNFR2 was “binds”.

B7: TNFR2-binding stefin A variant CLONE 001 (designed binder)
chain: MIPGGLSEAKPATPEIQEIVDKVKPQLEEKTGETYGKLEAVQYKTQVVGQDQWGNYAGTNYYIKVRAGDNKYMHLKVFKSLPDIPHNHWHEDLVLTGYQVDKNKDDELTGFAAAEQKLISEEDLAAHHHHHH
notes: also called clone 1
With B7, the binding result with human TNFR2 was “binds”.

B8: TNFR2-binding stefin A variant CLONE 007 (designed binder)
chain: MIPGGLSEAKPATPEIQEIVDKVKPQLEEKTGETYGKLEAVQYKTQVVGLDIWGNNAGTNYYIKVRAGDNKYMHLKVFKSLADTARTEEAEDLVLTGYQVDKNKDDELTGFAAAEQKLISEEDLAAHHHHHH
notes: also called clone 7
As to B8, the binding result with human TNFR2 is reported as “binds”.
